The chains are these.
B1: DnaA regulatory inactivator Hda (Escherichia coli (strain K12)), P69931 (parent)
chain: MNTPAQLSLPLYLPDDETFASFWPGDNSSLLAALQNVLRQEHSGYIYLWAREGAGRSHLLHAACAELSQRGDAVGYVPLDKRTWFVPEVLDGMEHLSLVCIDNIECIAGDELWEMAIFDLYNRILESGKTRLLITGDRPPRQLNLGLPDLASRLDWGQIYKLQPLSDEDKLQALQLRARLRGFELPEDVGRFLLKRLDREMRTLFMTLDQLDRASITAQRKLTIPFVKEILKL

In assay [1] the parent is B1. To be noted: with dpo3b_ecoli dnaN.
Variants of B1 are the subject of assay [2]. The note with it: with dpo3b_ecoli dnaN. This is another data set of the same source.

Sequence of dpo3b_ecoli dnaN, P0A988 (P0A988 whole entry): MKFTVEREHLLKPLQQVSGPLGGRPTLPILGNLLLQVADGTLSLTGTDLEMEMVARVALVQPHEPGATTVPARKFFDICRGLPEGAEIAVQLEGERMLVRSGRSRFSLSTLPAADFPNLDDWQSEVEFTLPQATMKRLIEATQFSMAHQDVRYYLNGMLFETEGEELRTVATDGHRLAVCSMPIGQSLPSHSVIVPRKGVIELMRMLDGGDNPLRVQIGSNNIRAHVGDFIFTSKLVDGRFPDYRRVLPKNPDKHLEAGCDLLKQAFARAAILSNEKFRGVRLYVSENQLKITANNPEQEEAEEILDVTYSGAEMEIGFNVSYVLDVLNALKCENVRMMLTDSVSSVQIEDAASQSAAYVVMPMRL

Regarding L9A;P10A, the “effect of a mutation on the interaction” value with dpo3b_ecoli dnaN, P0A988 [1] is listed as “decreasing interaction”; in the assay with dpo3b_ecoli dnaN, P0A988 [2], “disrupting interaction”.

Regarding L7A;L9A, the “effect of a mutation on the interaction” value in the assay with dpo3b_ecoli dnaN, P0A988 [1] is “decreasing interaction”; in the assay with dpo3b_ecoli dnaN, P0A988 [2] it was “disrupting interaction”.

These data come from IntAct's records for PubMed 15150238.
